{
  "source": "patent US20160287696A1",
  "about": "“PAN POLLEN IMMUNOGENS AND METHODS AND USES FOR IMMUNE RESPONSE MODULATION” (LA JOLLA INSTITUTE FOR ALLERGY AND IMMUNOLOGY, priority 2013, published 2016)",
  "key": {"splenocytes [1]": {"system": "splenocytes", "assay": "Bystander tolerance induction by prophylactic SLIT in mice, IP sensitization with NTGA 86/51 together with OVA", "format": "in vivo", "details": "for NTGA 86/51 specific in vitro proliferation of splenocytes vs buffer treated mice: FIG. 4", "from_the_text": "Bystander tolerance induction by prophylactic SLIT treatment with A0086 (FIG. 4). The ability of NTGA 86/51 to induce bystander tolerance, i.e. to induce tolerance against a non-related protein was investigated by SLIT treating the mice for two weeks with NTGA 86/51 followed by an IP sensitization with NTGA 86/51 together with the unrelated protein ovalbumin (OVA). Following this splenocytes were stimulated in vitro either with NTGA 86/51to confirm the ability of this protein to induce tolerance towards itself, or with OVA to investigate if NTGA 86/51 can induce bystander tolerance towards an unrelated protein."}, "[2]": {"system": "cultured PBMCs of the allergic donors", "assay": "ELISPOT of IL-5 or IFNg production by cultured PBMCs of TG allergic donors in response to peptide", "format": "cell-based, human", "details": "for NTGA's containing at least one T cell epitope, Th+ (Col 2): NTGA number given = criterion met, TG allergic donors n=20", "in_short": "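Counts of responding donors among 20 TG-allergic subjects, judged by ELISPOT for IL-5 or IFNg (positive: minimum 20 SFCs/10^6 PBMCs, stimulation index 2 or more, P .05). Cells were pre-expanded with TG pollen extract or peptide pool, then stimulated at 1×10^5/well with 10 μg/mL peptide.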"}, "splenocytes [3]": {"system": "splenocytes", "assay": "Prophylactic SLIT tolerance induction in mice, splenocyte proliferation", "format": "in vivo, BALB/c mice", "details": "prophylactic SLIT two weeks; for tolerance towards the immunogen itself (proliferation of splenocytes vs buffer (sham) treated mice): FIG. 3A / 3C", "from_the_text": "Then the tolerance induction of NTGA 86/51 was investigated in a prophylactic mice model using sublingual administration (FIG. 3)\nThe ability of NTGA 86/51 and NTGA 6 to induce prophylactic tolerance was investigated by SLIT treating naive BALB/c mice with NTGA 86/51 or NTGA 6 for two weeks (Monday-Friday) followed by one Phl p extract sensitization or sensitization to the immunogen itself (NTGA 86/51 or NTGA 6) as described above. Eleven days after the sensitization, splenocytes were harvested and stimulated in vitro with NTGA 86/51 as well as Phl p extract."}, "splenocytes [4]": {"system": "splenocytes", "assay": "Sensitization pattern: in vitro proliferation (3H-thymidine) of splenocytes of mice sensitized to Phl p extract", "format": "cell-based, BALB/c mice", "details": "mice sensitized IP with Phl p extract; 6 days stimulation", "from_the_text": "Initially, the sensitization pattern of an immunogen of the invention (NTGA 86/51) was investigated in BALB/c mice sensitized to Phl p extract (FIG. 2). For the purposes of these studies, the immunogen were expressed in E. Coli using standard expression protocols.\nMice were sensitized by one intraperitoneal injection with Phl p extract adsorbed to aluminium hydroxide. Eleven days later the mice were euthanized and splenocytes were stimulated in vitro with Phl p extract, Phl p 1, Phl p 5, NTGA 86/51. The cells were incubated for 6 days at 37° C. under 5% CO2 and incorporated 3H-thymidine was counted and used as a measure for T cell proliferation."}},
  "data": [
    {"molecule": "ovalbumin (protein, UniProt P01012 2-386, looked up, unrelated protein ovalbumin used as model allergen) Ovalbumin: GSIGAASMEFCFDVFKELKVHHANENIFYCPIAIMSALAMVYLGAKDSTRTQINKVVRFDKLPGFGDSIEAQCGTSVNVHSSLRDILNQITKPNDVYSFSLASRLYAEERYPILPEYLQCVKELYRGGLEPINFQTAADQARELINSWVESQTNGIIRNVLQPSSVDSQTAMVLVNAIVFKGLWEKAFKDEDTQAMPFRVTEQESKPVQMMYQIGLFRVASMASEKMKILELPFASGTMSMLVLLPDEVSGLEQLESIINFEKLTEWTSSNVMEERKIKVYLPRMKMEEKYNLTSVLMAMGITDVFSSSANLSGISSAESLKISQAVHAAHAEINEAGREVVGSAEAGVDAASVSEEFRADHPFLFCIKHIATNAVLFFGRCVSP", "values": [
      {"measurement": "NTGA 86/51 specific in vitro proliferation of splenocytes vs buffer treated mice", "setting": "splenocytes [1]", "result": "able to downregulate"}
    ]},
    {"molecule": "NTGA 6: Phl p wild type sequence, Table 2 (protein, Phleum Pratense) MADEKLAKLREAVAGLPQISDNEKSGFISLVSRYLSGEEEHIEWPKIHTPTDEVVVPYDTVDAPPEDLEATKALLDKLAVLKLNGGLGTTMGCTGPKSVIEVRNGFTFLDLIVLQIESLNKKYGSNVPLLLMNSFNTHEDTLKIVEKYANSSIDIHTFNQSQYPRVVADEFLPWPSKGKTDKDGWYPPGHGDIFPSLMNSGKLDLLLSQGKEYVFIANSDNLGAIVDMKILNHLIHKQNEYCMEVTPKTLADVKGGTLISYEGRVQLLEIAQVPDAHVDEFKSIEKFKIFNTNNLWVNLKAIKRLVEADALKMEIIPNPKEVDGVKVLQLETAAGAAIRFFDHAIGINVPRSRFLPVKATSDLQLVQSDLYTLVDGFVTRNSARTDPSNPSIELGPEFKKVGSFLGRFKSIPSIVELDSLKVSGDVWFGSGIVLKGKVTITAKPGVKLEIPDGAVLENKDINGAEDL", "values": [
      {"measurement": "immune reactivity (SFC counts in ELISPOT) of highly conserved PG+ peptides derived from the NTGA", "setting": "[2]", "result": "high immune reactivity"},
      {"measurement": "NTGA's containing at least one T cell epitope, Th+ (Col 2)", "setting": "[2]", "result": 6},
      {"measurement": "No of PG+ & th+ peptides per NTGA", "setting": "[2]; Table 6, PG+ peptides recognized by T cells of grass allergic donors (n=20)", "result": 22},
      {"measurement": "No of PP & Th+ peptides per NTGA", "setting": "[2]; Table 6, PP peptides recognized by T cells of grass allergic donors (n=20)", "result": 14},
      {"measurement": "# Th+", "setting": "[2]; Table 7, peptides per NTGA recognized by T cells of grass allergic donors (n=20)", "result": 9},
      {"measurement": "T cell reactivity of sequences contained in the protein", "setting": "[2]; among top pan-pollen NTGA's ranked by number of PP peptides", "result": "highly T cell reactive sequences"},
      {"measurement": "PG+ peptides recognized by grass allergic donors", "setting": "[2]; n=20 grass allergic donors, PG+ peptides of the NTGA", "result": "two"},
      {"measurement": "tolerance towards the immunogen itself (proliferation of splenocytes vs buffer (sham) treated mice)", "setting": "splenocytes [3]", "result": "capable of inducing tolerance towards itself"}
    ]},
    {"molecule": "NTGA 86/51: Phl p wild type full length protein from which PG+ peptides of NTGA's 86 and 51 derive (protein, Phleum Pratense, Phl p wild type full length protein from which PG+ peptides of NTGA's 86 and 51 derive) MSPAEPTREESVYMAKLAEQAERYEEMVEFMERVAKATGGAGPGEELSVEERNLLSVAYKNVIGARRASWRIISSIEQKEEGRGNDAHATTIRSYRSKIEAELAKICDGILALLDSHLVPSAGAAESKVFYLKMKGDYHRYLAEFKSGAERKEAAESTMNSYKAAQDIALADLAPTHPIRLGLALNFSVFYYEILNSPDRACNLAKQAFDEAISELDSLGEESYKDSTLIMQLLRDNLTLWTSDTNEDGGDEIKEAPAPKESGD", "values": [
      {"measurement": "NTGA 86/51 specific in vitro proliferation of splenocytes vs buffer treated mice", "setting": "splenocytes [1]", "result": "reduced proliferation"},
      {"measurement": "OVA specific in vitro proliferation of splenocytes vs buffer treated mice (bystander tolerance)", "setting": "splenocytes [1]; FIG. 4B", "result": "decreased"},
      {"measurement": "NTGA's containing at least one T cell epitope, Th+ (Col 2)", "setting": "[2]", "result": "86/51"},
      {"measurement": "in vitro T-cell response (splenocyte proliferation) compared to the response to Phl p 5", "setting": "splenocytes [4]", "result": "much weaker"},
      {"measurement": "in vitro T-cell response (splenocyte proliferation) compared to the response towards the Phl p extract", "setting": "splenocytes [4]", "result": "much weaker"},
      {"measurement": "tolerance towards the immunogen itself (proliferation of splenocytes vs buffer (sham) treated mice)", "setting": "splenocytes [3]", "result": "capable of inducing tolerance towards the immunogen itself"},
      {"measurement": "tolerance towards Phl p extract (proliferation of splenocytes vs buffer (sham) treated mice)", "setting": "splenocytes [3]; FIG. 3B", "result": "capable of inducing tolerance"}
    ]}
  ]
}
